Reference: US12637513B2, “Method of treating cancer by administering an inhibitor of erythropoietin receptor activity comprising either erythropoietin receptor or erythropoietin protein” (ImmunEdge, Inc., priority 2022, dated 2026)

T1: EPO/EPOR interaction (EPOR-CD131-Fc and EPO) (Homo sapiens, UniProt P19235+P32927)
T1 construct: Chimeric Fc fusion proteins of the extracellular domains of human EPOR and human CD131; purchased Sino Biological CT010-H02H
T1 sequence (P19235 25-250 limits assumed): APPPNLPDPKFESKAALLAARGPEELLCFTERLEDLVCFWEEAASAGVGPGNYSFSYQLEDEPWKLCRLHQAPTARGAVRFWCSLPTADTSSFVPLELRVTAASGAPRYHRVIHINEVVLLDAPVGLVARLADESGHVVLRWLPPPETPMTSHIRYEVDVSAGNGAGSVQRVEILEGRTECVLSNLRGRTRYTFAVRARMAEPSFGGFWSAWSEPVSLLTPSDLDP
T1 sequence (P32927 17-443 limits assumed): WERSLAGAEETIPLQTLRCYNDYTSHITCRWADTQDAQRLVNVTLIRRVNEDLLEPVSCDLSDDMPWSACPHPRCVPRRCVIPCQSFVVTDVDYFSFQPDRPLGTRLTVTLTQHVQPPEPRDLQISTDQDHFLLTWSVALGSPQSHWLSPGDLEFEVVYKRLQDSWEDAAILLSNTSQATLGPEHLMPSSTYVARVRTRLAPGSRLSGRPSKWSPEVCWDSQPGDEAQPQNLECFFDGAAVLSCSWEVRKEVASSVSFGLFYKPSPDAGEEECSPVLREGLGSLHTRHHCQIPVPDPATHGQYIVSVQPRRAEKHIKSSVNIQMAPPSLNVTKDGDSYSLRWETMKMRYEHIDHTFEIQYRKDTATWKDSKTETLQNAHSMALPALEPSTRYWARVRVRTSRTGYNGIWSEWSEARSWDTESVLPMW


target: T1, EPO/EPOR interaction (EPOR-CD131-Fc and EPO); experiment: Octet blocking of the EPO/EPOR interaction by hybridoma supernatants; type: binding; settings: EPO 10 nM

blocking of the EPO/EPOR interaction	Molecule
did not block	EPORab - M37: hybridoma antibody clone, VH/VK in Table 10 (antibody, V domains shown) VH: QVQLQESGPGLVKPSGTLSLTCAVSGGSITTNNWWSWVRQSPGKGLEWIGEIYHSGNTNYNPSLKSRVTMSVDKSKNQFSLNLNSVIVADTAVYYCASALGTYYGAFDTWGQGTMVTVSA VL: DIQMTQSPSSLSASVGDRVTITCRASQSISNYLNWYQQKPGKAPKLLIYAASSLQSGVPSRFSGSGSGTDFTLTISSLQPEDFTTYYCQQSYGTPYTFGQGAKLQIK
did not block	EPORab - M43: hybridoma antibody clone, VH/VK in Table 10 (antibody, V domains shown) VH: QVQLQESGPGLVKPSGTLSLTCAVSGGSISSSNWWSWVRQPPGKGLEWIGEIYHSGSINYNPSLKSRVTISVDKSKNQFSLKLTSVTAADTAVYYCASALGNYYGAFDLWGQGTMVTVSS VL: DIVMTQSPSSLSASVGDRVTITCRASQTISSYLNWYQQKPGKAPKLLICAASSLQGGVPSRFSGSGSGTDFTLTISSLQPEDFAPYYCQQSYSTPYTFGQGTKLEIK
partial blocking	EPORab - M52: hybridoma antibody clone, VH/VK in Table 10 (antibody, V domains shown) VH: QLQLQESGPGLAKPSETLSLTCTVSGVSISSNSYYWGWIRQPPGKGLEWIGNIYHSGRTYYNPSLRSRVTISVDTSKNQFSLKLNSVTAADTAVYYCARGYSYGAFDYWGQGTLVTVSS VL: DIQMTQSPSSLSASVGDRVTITCRASQGIRNDLGWYQQKPGKAPKRLIYAASSLQSGIPSRFSGSGSGTEFTLTISSLQPEDFATYYCLQHNNYPWTFGQGTKVEIK
partial blocking	EPORab - M19: hybridoma antibody clone, VH/VK in Table 10 (antibody, V domains shown) VH: QLQLQESGPGLVKPSETLSLTCTVSGGSISSSNHYWGWIRQPPGKGLEWIGTLYYSGSTYYEPSLKSRVTISVDTSMNQFSLNLSSVTATDTAVYNCARGDRYGPFDYWGQGTLVTVSS VL: DIVMTQSPSSLSASVGDRVTITCRASQGIRDDLGWYQQKPEKAPKRLICAASSLQSGVPSRFSGSGSGTEFTLTISSLQPEDFATYYCLQYNRYPWTFGQGTKVEIK
partial blocking	EPORab - M24: hybridoma antibody clone, VH/VK in Table 10 (antibody, V domains shown) VH: EVQLVESGGGLVKPGGSLRLSCAASGFTFTNAWMNWVRQAPGKGLEWIGRIKSKTAGETTDYAAPVKGRFTISRDDSKNTLYLQMNSLKTEDTAVYYCTTDPDYGDPYYYYYFMDVWGKGTTVTVSS VL: DIQMTQSPSSLSASIGDRVTISCRASQSISSYLNWYQQKPGKAPKLLIYGASSLQSGVPSRFSGSGSGTDFTLTISSLQPEDFATYYCQQSYSLPLTFGGGTKVEIK
partial blocking	EPORab - M54: hybridoma antibody clone, VH/VK in Table 10 (antibody, V domains shown) VH: QLQLQESGPGLVKPSETLSLTCSVSGGSISSSGYYWGWIRQPPGKGLDWIGTIYYSGNTNYNPSLNSRVTISVDTSRNQFSLKLRSVTAADTAVYYCARGYSYGPFDYWGQGTLVTVSS VL: EIVMTQSPATLSVSPGERATLSCRASQSVSSNLAWYQLKPGQAPRLLIYGASTRATGIPARFSGSGSGTEFTLTISSLQSEDFAVYYCHPYNNWPLTFGGGTKVEIK
did not block	EPORab - M71: hybridoma antibody clone, VH/VK in Table 10 (antibody, V domains shown) VH: QVQLVESGAEVKKPRASVKVSCKTSGYTFTRHYMHWVRQAPGQGLEWMGIINPNNNSTSYAQKFQGRITMTRDTSTSTVYMELSSLRSEDTAVYYCARFRIVGTTLYFDYWGQGTLVTVSS VL: EIVMTQSPATLSVSPGERATLSCRASQSVSSNLAWYQLKPGQAPRLLIYGASTRATGIPARFSGSGSGTEFTLTISSLQSEDFAVYYCHPYNNWPLTFGGGTKVEIK
